Entries after “also recorded” stand apart in the source; their conditions may differ. Non-standard residues stand in square brackets, D forms with d. No end group written: not given here.
Tests used:
[1] = target: T1, A-beta1-42 (Homo sapiens, UniProt P05067); experiment: Density gradient centrifugation (iodixanol): modulation of A-beta1-42 aggregation behavior; format: biochemical; conditions: for Peptide bound in fraction 12 [%]: FITC-labelled peptide, amount of dye in fraction 12 of the iodixanol gradient, estimate of binding to / precipitation of A-beta oligomers; for Effect on A-beta aggregation (distribution of A-beta over gradient fractions): 80 μM A-beta1-42, 20 μM peptide, 259,000×g, 3 h, 4° C., SDS-PAGE, silver staining
T1 construct: overlayed with 100 μl of a 80 μM A-beta1-42 solution
T1 sequence (P05067 672-713): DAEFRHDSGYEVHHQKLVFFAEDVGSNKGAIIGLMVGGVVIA
Description: The effects of the peptides described in the table on A-beta aggregation were investigated by means of density gradient centrifugation. Thus, A-beta was mixed with the respective peptide and the particles formed are separated according to size. The sample to be investigated was placed on the surface of the centrifuge tube in which a density gradient was charged, which consisted of layers of different iodixanol concentrations in this example. During the several hours of separation, the molecules sediment at different rates in the solvent, namely, more rapidly the larger the particles. The centrifugation is terminated at a suitable time point and different constituents of the sample are obtained in the various layers which are analyzed by SDS-PAGE. A-beta without addition of peptide served as control.
This changes on addition of RD2. […] Large aggregates are formed which are detectable in fractions 10-15. […] All D-enantiomeric peptides which were characterized with A-beta using the method mentioned above were labelled with FITC. The amount of dye detectable in fraction 12 was used to estimate the binding strength of the respective D3 derivative to A-beta oligomers or the oligomer precipitating effects thereof in vitro. It was shown that the peptide RD2 especially has a significant effect on A-beta aggregation compared to D3.
FIG. 1: Modulation of the A-beta1-42 aggregation behavior by RD2, analzyed by an iodixanol density gradient. The iodixanol gradient was overlayed with 100 μl of a 80 μM A-beta1-42 solution and 100 μl of a 80 μM A-beta and 20 μM RD2 mixture. The mixture was then centrifuged at 259,000×g for 3 h at 4° C. The 15 fractions (fraction 15 is the pellet boiled with the loading buffer) were harvested manually immediately after the centrifugation and analyzed by Tris-Tricin-SDS-PAGE followed by silver staining.

[2] = target: A-beta oligomers (Homo sapiens, UniProt P05067); conditions: D3 in higher concentrations (than 20 μM); cited from earlier work
A-beta oligomers, sequence (P05067 672-713 limits assumed): as the sequence (P05067 672-713) above

Substance	Peptide bound in fraction 12 [%] [1] [%]	Effect on A-beta aggregation (distribution of A-beta over gradient fractions) [1]	Precipitation of A-beta oligomers [2]
pnhhrrrrrttl ([dP][dN][dH][dH][dR][dR][dR][dR][dR][dT][dT][dL]) [RD1, D3 derivative, rational D3]	3	–	–
ptlhthnrrrrr ([dP][dT][dL][dH][dT][dH][dN][dR][dR][dR][dR][dR]) [RD2, D3 derivative, rational D3]	20	fewer A-beta oligomers could be detected in the fractions 3-9	–
rprtrl ([dR][dP][dR][dT][dR][dL]) [NT-D3, D3 derivative, D3-N-Terminus]	0	–	–
rprtrlhthrnr ([dR][dP][dR][dT][dR][dL][dH][dT][dH][dR][dN][dR]) [Peptide D3, D-enantiomeric D-peptide D3, parent peptide used as comparison, reference compound]	4	no change was apparent; also recorded: no effect	precipitates A-beta oligomers and converts them into large, amorphous and non-toxic aggregates
rprtrlrnr ([dR][dP][dR][dT][dR][dL][dR][dN][dR]) [Peptide D3Δhth, D3 with deletion hth]	2	–	–
rrptlrhthnrr ([dR][dR][dP][dT][dL][dR][dH][dT][dH][dN][dR][dR]) [RD3, D3 derivative, rational D3]	4	–	–
